Reference: paper PMC4988983

How the values were obtained:
[1] = molecular target: NADPH-thioredoxin reductase C from Anabaena sp. PCC 7120 (Anabaena sp. PCC 7120 (endogenous in Anabaena cells)); experiment: SEC; soluble extracts (200 µg total protein) of untreated Anabaena cells (0 h) on Superdex 200 HR 10/30, 50 mM KH2PO4 pH 7.1, 150 mM NaCl, 0.5 ml/min; fractions read by Western blot
[2] = molecular target: 2-Cys peroxiredoxin from Anabaena sp. PCC 7120 (Anabaena sp. PCC 7120 (endogenous in Anabaena cells)); experiment: as above
[3] = molecular target: 2-Cys peroxiredoxin from Anabaena sp. PCC 7120 (Anabaena sp. PCC 7120 (endogenous in Anabaena cells)); experiment: non-reducing SDS-PAGE with Western blot; soluble extracts of Anabaena WT and ΔntrC cells treated with H2O2, methyl viologen or high light; dimer and monomer bands of 2-Cys Prx

| stoichiometry N [1] | stoichiometry N [2] | stoichiometry N [3] | Substance |
| --- | --- | --- | --- |
| 2 |  |  | NADPH-thioredoxin reductase C from Anabaena sp. PCC 7120 (enzyme) |
|  | 2 | 2 | 2-Cys peroxiredoxin from Anabaena sp. PCC 7120 (enzyme) |
